This is an account of results in PMC3528108.

Read-outs that look alike come from different tables or passages of the source.

Data set [1] deals with T1, GST-TRF2 (human, UniProt Q15554 1-542). As to the kind of experiment: ELISA.
Data set [2] concerns the target T1, GST-TRF2. As to the kind of experiment: ELISA. This is another data set of the same source. For orientation: An ELISA detects its analyte on a solid surface through an enzyme-linked reagent.

T1 sequence (Q15554 whole entry): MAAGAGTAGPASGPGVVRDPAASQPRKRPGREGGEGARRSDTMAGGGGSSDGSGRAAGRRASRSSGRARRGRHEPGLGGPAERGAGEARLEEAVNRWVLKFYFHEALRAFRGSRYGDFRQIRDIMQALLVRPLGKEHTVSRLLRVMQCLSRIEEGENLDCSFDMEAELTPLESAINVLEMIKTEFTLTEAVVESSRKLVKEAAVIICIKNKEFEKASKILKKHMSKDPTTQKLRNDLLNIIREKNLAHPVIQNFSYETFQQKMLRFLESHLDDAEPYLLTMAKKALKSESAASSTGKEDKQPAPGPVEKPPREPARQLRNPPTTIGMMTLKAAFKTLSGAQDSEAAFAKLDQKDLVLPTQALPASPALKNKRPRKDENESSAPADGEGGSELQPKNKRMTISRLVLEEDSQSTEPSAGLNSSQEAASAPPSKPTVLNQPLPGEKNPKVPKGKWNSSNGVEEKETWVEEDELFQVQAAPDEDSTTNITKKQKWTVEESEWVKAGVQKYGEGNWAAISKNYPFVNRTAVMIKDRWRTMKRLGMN

Regarding UUACCGUUACCGUUACCGUUACCG (ssRNA) [TERRA-mut], the binding result in the data set with GST-TRF2 [1] is “no binding”. Take AGGGGGCCGUGGGGUGGGAGCUGGGG (structured_RNA) [BCL2 RNA G-quadruplex]: the binding result in the data set with GST-TRF2 [2] is “binds”. Turning to AGGGAGGGGCGGGUCUGGG (structured_RNA) [NRAS RNA G-quadruplex], the binding result with GST-TRF2 [2] is listed as “binds”.
